Results reported in PMC6588657 (2018).

Biological target: Full-length Drosophila ATL (Drosophila) (UniProt Q9VC57)
Sequence (Q9VC57 whole entry): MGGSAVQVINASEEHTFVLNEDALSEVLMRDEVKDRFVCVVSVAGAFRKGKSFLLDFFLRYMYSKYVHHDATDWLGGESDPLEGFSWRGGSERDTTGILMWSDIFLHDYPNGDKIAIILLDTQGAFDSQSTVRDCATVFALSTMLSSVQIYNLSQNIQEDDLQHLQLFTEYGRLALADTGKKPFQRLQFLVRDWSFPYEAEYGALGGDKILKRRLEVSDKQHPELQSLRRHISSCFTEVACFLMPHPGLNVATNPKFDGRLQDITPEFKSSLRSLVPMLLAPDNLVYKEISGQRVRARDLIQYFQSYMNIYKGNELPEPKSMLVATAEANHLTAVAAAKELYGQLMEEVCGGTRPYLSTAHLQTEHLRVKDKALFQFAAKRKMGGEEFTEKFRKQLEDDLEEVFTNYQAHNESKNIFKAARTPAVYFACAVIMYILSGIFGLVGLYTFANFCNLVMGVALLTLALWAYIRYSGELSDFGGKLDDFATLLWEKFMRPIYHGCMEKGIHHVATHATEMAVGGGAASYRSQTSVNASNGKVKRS

GTP-dependent fusion of dmATL donor and acceptor vesicles (NBD dequenching), dmLnp-NT at 5 times the concentration of dmATL, against samples without Lnp: 50%
Substance: dmLnp-NT-Flag-GST (domain or fragment)
